Measurements taken from paper doi:10.1101/2021.02.16.431021 (bioRxiv, 2021).

Molecular target: the molecule itself
Assay: crystal structure

B1: SARS-CoV main protease (M^pro) (enzyme)
chain: SGFRKMAFPSGKVEGCMVQVTCGTTTLNGLWLDDTVYCPRHVICTAEDMLNPNYEDLLIRKSNHSFLVQAGNVQLRVIGHSMQNCLLRLKVDTSNPKTPKYKFVRIQPGQTFSVLACYNGSPSGVYQCAMRPNHTIKGSFLNGSCGSVGFNIDYDCVSFCYMHHMELPTGVHAGTDLEGKFYGPFVDRQTAQAAGTDTTITLNVLAWLYAAVINGDRWFLNRFTTTLNDFNLVAMKYNYEPLTQDHVDILGPLSAQTGIAVLDMCAALKELLQNGMNGRTILGSTILEDEFTPFDVVRQCSGVTFQ
B1: binds.
